# Measurements from patent CN109384845A (SHANGHAI INST BIOLOGICAL SCIENCES CAS, dated 2019).
# Molecular target: T1, 人CD40 (BJAB细胞) (human, UniProt P25942 21-277)
# T1 construct: whole, on cells; On the surface of BJAB cells in FACS and in the functional assays; also called 细胞膜表面的CD40; 人CD40分子
# Test: Western blot, hybridoma supernatant as primary antibody, HRP anti-mouse IgG secondary
# T1 sequence (P25942 21-277): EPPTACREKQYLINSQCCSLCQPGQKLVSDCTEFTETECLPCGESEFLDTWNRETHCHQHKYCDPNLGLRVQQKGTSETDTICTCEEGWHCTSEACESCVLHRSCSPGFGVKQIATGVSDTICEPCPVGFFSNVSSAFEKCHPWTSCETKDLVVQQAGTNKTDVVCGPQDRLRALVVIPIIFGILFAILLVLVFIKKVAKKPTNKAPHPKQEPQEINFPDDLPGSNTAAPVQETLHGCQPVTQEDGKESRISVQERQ
binder,measurement,value
"CD40单克隆抗体 No.3 (antibody, V domains shown, Mouse hybridoma antibody, tested as culture supernatant) VH: EVQLQQSGPELVKPGASVKIVCKASGYTFTDYNMDWVKQSHGKSLEWIGDINPKNGGIIYNQKFKGKATLTVDKSSSTAYMELRSLTSEDTAVYYCVRRFAYWGQGTTVTVSS VL: DIELTQSPTTMAASPGEKITITCSASSSISSNYLHWYQQKPGFSPKLLIYRTSNLAYGVPARFSGSGSGTSYSLTIGTMEAEDVATYYCQQGSSIPYTFGGGTKLEIKR",binding result,binds
